Experimental data from the DeepSol protein solubility set.

Experiment: soluble on expression in E. coli; label from the status in PepcDB or PDB records

Sequence	soluble on expression in E. coli
MAPPNGTTNGETEVATQGSYTAVSTGRKTTMHRLIEEHGSVLMPGVQDALSAAVVEKTGFHAAFVSGYSVSAAMLGLPDFGLLTTTEVVEATRRITAAAPNLCVVVDGDTGGGGPLNVQRFIRELISAGAKGVFLEDQVWPKKCGHMRGKAVVPAEEHALKIAAAREAIGDSDFFLVARTDARAPHGLEEGIRRANLYKEAGADATFVEAPANVDELKEVSAKTKGLRIANMIEGGKTPLHTPEEFKEMGFHLIAHSLTAVYATARALVNIMKILKEKGTTRDDLDQMATFSEFNELISLESWYEMESKFKNFTPKAT	soluble
MAPQPFDIDTPSLRVFLPAPELATGRAIVACPGGGYGGLAVNHEGYDWAPYFNKQGIALIVLKYRMPHGDRTLPISDAEAAMKMARDSADVWNLNPYDIGIMGSSAGGHLASTIATHTRPELRPNFQILFYPVITMDKSYTHIGSHDNLLGKDAFAELETEFSNEKQVTKETPRAFIAYSDDDKTVPPANGVNYYLGLHKNHVPAVLHIYASGGHGWGIRENFIYLEHHHHHH	not soluble
MAPSKSKEKKEKAKTSRRKSGSQTKKDTTSTVSEGKSPTEVADQLLKAKSRPQMYDLLKGHAAFNVPEFVKNLPVNVRLPIPIRDNRRVLCGSDEEFFPGQYVRMEGAEYIIVQAPTKKSSKLIWRVILKDHIRILVCLCHDEQMSGSDDGKCYTYFPTELEQKMEAELMKGTLSIVCKAREGLSMGATKYELELTDSEVVIDKNSDDPNASNYKSHRLIVFHMNTWSGQKPTSGNALEQAQNVALFFREVKKFEMDILRKSMENFVPPVMLQSFDGINRASTGWVALMLLRDVEKRECFDVPSLIKAIMKFRNGSISTYYQFCFCMAVCLNIGKHTNWCANDCSTALTDLMEKFGNRKLNELGNLAV	not soluble
MAPVVCDVCGVRRAVVLQRHTGRRLCRECFREDIVGRVRREVERWGMIGPGETVLLGLSGGKDSYVLLDALSEIVGPSRLVAVSIVEGIPGYNREGDIEKIRRVAAARGVDVIVTSIREYVGASLYEIYSRARGRGAGHAACTYCGISRRRILALYARLYGAHKVATAHNLDDEAQTAIVNFLRGDWVGMLKTHPLYRSGGEDLVPRIKPLRKVYEWETASYVVLHRYPIQEAECPFINMNPTLRARVRTALRVLEERSPGTLLRMMERLDEELRPLAQAMKPSSLGRCERCGEPTSPKRRLCKLCELLEEAGFQEPIYAIAGRGKRLRLQSPTASPG	not soluble
MAPYKKSKQKQQKIQKERLRQQQKLDLAEGSVNIPDQDRSRSQDFSMNSTNSSALQDPLQQQPRPVETEKQQKARKERLRYQMKQLGTPCEPVTFSEEITKQLDELYESDDLPDMGLKSVWKRRLGIPMKKLNDWLKQKAFEKCHVSAQTGSCESSKSNSPSESTKSMGSAVLSSSTEPRTPEESHCAPEKSPESTENASPLSSSAEPETPEETSTSMVQIPENFKNKRLSQDLVDKLQELFQINEMPGREISEQWAQQLGISLKTLNNWMQKKRSQKLHPEQAKLKSQRWQETRRLRRAGLNQEKVEKALPYLEAAFKRCQFATQQTMAELKLNTSLQKSQIRLWFSRRRKAPDATHVPAIESDSDDLVELRALFNATEEDDDSDIEILRDTRQEQEEYRNRPEVRAMIERMFGVGGGGGSLDSGIPLQ	not soluble
MAQGEKITVSNGVLNVPNNPIIPFIEGDGTGPDIWNAASKVLEAAVEKAYKGEKKITWKEVYAGEKAYNKTGEWLPAETLDVIREYFIAIKGPLTTPVGGGIRSLNVALRQELDLFVCLRPVRYFTGVPSPVKRPEDTDMVIFRENTEDIYAGIEYAKGSEEVQKLISFLQNELNVNKIRFPETSGIGIKPVSEEGTSRLVRAAIDYAIEHGRKSVTLVHKGNIMKFTEGAFKNWGYELAEKEYGDKVFTWAQYDRIAEEQGKDAANKAQSEAEAAGKIIIKDSIADIFLQQILTRPNEFDVVATMNLNGDYISDALAAQVGGIGIAPGANINYETGHAIFEATHGTAPKYAGLDKVNPSSVILSGVLLLEHLGWNEAADLVIKSMEKTIASKVVTYDFARLMDGATEVKCSEFGEELIKNMD	soluble
